Experimental data as given in patent publication US20140086829A1 (BIOREC S A, published 2014).

Key:
P64K-VEGFKDR- (human) = P64K-VEGFKDR- (human) (UniProt P15692); assay: ELISA; antigen coated 1 µg/ml; scFv 10 µg/mL; 9E10-peroxidase
human GST-VEGF [1] = biological target: T1, human GST-VEGF (human, UniProt P15692-9 27-147); assay: competition ELISA on coated GST-VEGF; soluble scFv 2H1 titrated; competitor phage scFv L1
T1 construct: also called GST-VEGF humano; not shown: GST fusion partner
T1 sequence (looked up): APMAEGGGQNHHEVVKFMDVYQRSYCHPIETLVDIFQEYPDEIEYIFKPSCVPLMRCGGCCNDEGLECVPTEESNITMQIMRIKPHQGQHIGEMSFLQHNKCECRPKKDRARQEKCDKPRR

human GST-VEGF [2] = biological target: T1, human GST-VEGF; assay: competition ELISA on coated GST-VEGF; soluble scFv 2H1 titrated; competitor phage scFv 3C4
human GST-VEGF [3] = biological target: T1, human GST-VEGF; assay: competition ELISA on coated GST-VEGF; soluble scFv 2H1 titrated; competitor phage scFv 3D4
human GST-VEGF [4] = biological target: T1, human GST-VEGF; assay: competition ELISA on coated GST-VEGF; soluble scFv 2H1 titrated; competitor phage scFv 3E1
human GST-VEGF [5] = biological target: T1, human GST-VEGF; assay: competition ELISA on coated GST-VEGF; soluble scFv 2H1 titrated; competitor phage scFv 3E2
human GST-VEGF [6] = biological target: T1, human GST-VEGF; assay: competition ELISA on coated GST-VEGF; soluble scFv 2H1 titrated; competitor phage scFv 3E3
human GST-VEGF [7] = biological target: T1, human GST-VEGF; assay: competition ELISA on coated GST-VEGF; soluble scFv 2H1 titrated; competitor phage scFv 3E5
human GST-VEGF [8] = biological target: T1, human GST-VEGF; assay: competition ELISA on coated GST-VEGF; soluble scFv 2H1 titrated; competitor phage scFv 3H2
human GST-VEGF [9] = biological target: T1, human GST-VEGF; assay: competition ELISA on coated GST-VEGF; soluble scFv 2H1 titrated; competitor phage scFv 4D8
human GST-VEGF [10] = biological target: T1, human GST-VEGF; assay: competition ELISA on coated GST-VEGF; soluble scFv 2H1 titrated; competitor phage scFv 4F2
human GST-VEGF [11] = biological target: T1, human GST-VEGF; assay: competition ELISA on coated GST-VEGF; soluble scFv 2H1 titrated; competitor phage scFv 1B1
human GST-VEGF [12] = biological target: T1, human GST-VEGF; assay: competition ELISA on coated GST-VEGF; soluble scFv 2H1 titrated; competitor phage scFv 1C9
human GST-VEGF [13] = biological target: T1, human GST-VEGF; assay: competition ELISA on coated GST-VEGF; soluble scFv 2H1 titrated; competitor phage scFv 1E9
human GST-VEGF [14] = biological target: T1, human GST-VEGF; assay: competition ELISA on coated GST-VEGF; soluble scFv 2H1 titrated; competitor phage scFv 1G4
human GST-VEGF [15] = biological target: T1, human GST-VEGF; assay: competition ELISA on coated GST-VEGF; soluble scFv 2H1 titrated; competitor phage scFv 2F5
human GST-VEGF [16] = biological target: T1, human GST-VEGF; assay: competition ELISA on coated GST-VEGF; soluble scFv 2H1 titrated; competitor phage scFv 1B1; remark: listed apart in the source
human GST-VEGF [17] = biological target: T1, human GST-VEGF; assay: competition ELISA on coated GST-VEGF; soluble scFv 2H1 titrated; competitor phage scFv 1H2
human GST-VEGF [18] = biological target: T1, human GST-VEGF; assay: competition ELISA on coated GST-VEGF; soluble scFv 2H1 titrated; competitor phage scFv 2F6
human GST-VEGF [19] = biological target: T1, human GST-VEGF; assay: competition ELISA on coated GST-VEGF; soluble scFv 2H1 titrated; competitor phage scFv 3E3; remark: listed apart in the source
human GST-VEGF [20] = biological target: T1, human GST-VEGF; assay: competition ELISA on coated GST-VEGF; soluble scFv 2H1 titrated; competitor phage scFv 3F3
human GST-VEGF [21] = biological target: T1, human GST-VEGF; assay: competition ELISA on coated GST-VEGF; soluble scFv 2H1 titrated; competitor phage scFv 2B12
human GST-VEGF [22] = biological target: T1, human GST-VEGF; assay: competition ELISA on coated GST-VEGF; soluble scFv 2H1 titrated; competitor phage scFv 3E10
human GST-VEGF [23] = biological target: T1, human GST-VEGF; assay: competition ELISA on coated GST-VEGF; soluble scFv 2H1 titrated; competitor phage scFv 4E11
human GST-VEGF [24] = biological target: T1, human GST-VEGF; assay: competition ELISA on coated GST-VEGF; soluble scFv 2H1 titrated; competitor phage scFv 2H10
human GST-VEGF [25] = biological target: T1, human GST-VEGF; assay: competition ELISA on coated GST-VEGF; soluble scFv 2H1 titrated; competitor phage scFv L3H6
human GST-VEGF [26] = biological target: T1, human GST-VEGF; assay: competition ELISA on coated GST-VEGF; soluble scFv 2H1 titrated; competitor phage scFv L3H7

B1: soluble scFv 2H1 antibody fragment (scFv, from another filing)
scFv: QQVQLVQSGAEVKKPGESLKISCKGSGYSFTSYWIGWVRQMPGKGLEWMGIIYPGDSDTRYSPSFQGQVTISADKSISTAYLQWSSLKASDTAMYYCARLVVRDTEIWGQGTMVTVSSAPQAKSSGSGSESKVDQAVVTQEPSLTVSPGGTVTLTCASSIGAVTSGNYPNWFQQRPGQPPRALIYSTSNKHSWTPARFSGSLLGGKAALTLSGAQPEDEAEYYCLLSYSGARPVFGGGTKLTVLGAAAGSEQKLISEEDLNSHHHHHH
absorbance at 492 nm (P64K-VEGFKDR- (human)): 0.764 | IC50 (human GST-VEGF [1]): 11.7 µg/mL | IC50 (human GST-VEGF [2]): 29 µg/mL | IC50 (human GST-VEGF [3]): 16.3 µg/mL | IC50 (human GST-VEGF [4]): 21.2 µg/mL | IC50 (human GST-VEGF [5]): 15.3 µg/mL | IC50 (human GST-VEGF [6]): 35.1 µg/mL | IC50 (human GST-VEGF [7]): 9.06 µg/mL | IC50 (human GST-VEGF [8]): 19.6 µg/mL | IC50 (human GST-VEGF [9]): 32 µg/mL | IC50 (human GST-VEGF [10]): 4.98 µg/mL | IC50 (human GST-VEGF [11]): 151 µg/mL | IC50 (human GST-VEGF [12]): 38.3 µg/mL | IC50 (human GST-VEGF [13]): 46.2 µg/mL | IC50 (human GST-VEGF [14]): 57.7 µg/mL | IC50 (human GST-VEGF [15]): 4.21 µg/mL | IC50 (human GST-VEGF [16]): 149 µg/mL | IC50 (human GST-VEGF [17]): 120 µg/mL | IC50 (human GST-VEGF [18]): 115 µg/mL | IC50 (human GST-VEGF [19]): 34.6 µg/mL | IC50 (human GST-VEGF [20]): 49.7 µg/mL | IC50 (human GST-VEGF [21]): 21.1 µg/mL | IC50 (human GST-VEGF [22]): 15.1 µg/mL | IC50 (human GST-VEGF [23]): 5.28 µg/mL | IC50 (human GST-VEGF [24]): 10.2 µg/mL | IC50 (human GST-VEGF [25]): 978 µg/mL | IC50 (human GST-VEGF [26]): 890 µg/mL
